The labels stand for the following.
B1: Hammerhead Ribozyme (parent)
chain: ACCGGAUGUGCUUUCCGGUCUGAUGAGUCCGUGAGGACGAAACAG

From the RNAGym collection of RNA variant scans (doi:10.7554/elife.80360) come the findings set out here.

This data set covers variants of B1. Kind of data set: self-cleavage, relative activity (ratio to wild type); higher = more cleavage; co-transcriptional.
For ACCGGAUGUACUUUCCGGUCUGAUGAGUCCGUGAGGAAGAAACAG [G10A C38A], the self-cleavage came to 0.814. Take ACCGGAUGUACUUUCCGGUCUGAUGAGUCCGUGAGGAUGAAACAG [G10A C38U]: the self-cleavage was found to be 1.33. Then ACCGGAUGUACUUUCCGGUCUGAUGAGUCCGUGAGGAGGAAACAG [G10A C38G], with 0.751; and ACCGGAUGUACUUUCCGGUCUGAUGAGUCCGUGAGGGCGAAACAG [G10A A37G], with 0.639. Next, ACCGGAUGUACUUUCCGGUCUGAUGAGUCCGUGAGGCCGAAACAG [G10A A37C]: 1.19; ACCGGAUGUACUUUCCGGUCUGAUGAGUCCGUGAGGUCGAAACAG [G10A A37U]: 0.921; ACCGGAUGUACUUUGCGGUCUGAUGAGUCCGUGAGGACGAAACAG [G10A C15G]: 0.899. On to ACCGGAUGUACUUUACGGUCUGAUGAGUCCGUGAGGACGAAACAG [G10A C15A], for which the self-cleavage is 0.927. On to ACCGGAUGUACUUUUCGGUCUGAUGAGUCCGUGAGGACGAAACAG [G10A C15U], for which the self-cleavage was 0.919. Then ACCGGAUGUACUCUCCGGUCUGAUGAGUCCGUGAGGACGAAACAG [G10A U13C], with 1.39; and ACCGGAUGUACUAUCCGGUCUGAUGAGUCCGUGAGGACGAAACAG [G10A U13A], with 1.72. In the case of ACCGGAUGUACUGUCCGGUCUGAUGAGUCCGUGAGGACGAAACAG [G10A U13G], the self-cleavage came out at 0.956.

As for ACCGGAUGUACUUUCCGCUCUGAUGAGUCCGUGAGGACGAAACAG [G10A G18C], the self-cleavage came out at 0.615.

For ACCGGAUGUACUUUCCGUUCUGAUGAGUCCGUGAGGACGAAACAG [G10A G18U], the self-cleavage was 1.13.

With ACCGGAUGUACUUUCCGAUCUGAUGAGUCCGUGAGGACGAAACAG [G10A G18A], the self-cleavage was 0.943. Next, ACCGGAUGUACUUUCCGGUCUGAUGAGUCGGUGAGGACGAAACAG [G10A C30G]: 0.783. Next, ACCGGAUGUACUUUCCGGUCUGAUGAGUCAGUGAGGACGAAACAG [G10A C30A]: 1.01; ACCGGAUGUACUUUCCGGUCUGAUGAGUCUGUGAGGACGAAACAG [G10A C30U]: 1.06. For the variant ACCGGAUGUACUUUCCGGUCUGAUGAGUCCGUGAGGACGCAACAG [G10A A40C], the self-cleavage is 0.676. As to ACCGGAUGUACUUUCCGGUCUGAUGAGUCCGUGAGGACGUAACAG [G10A A40U], the self-cleavage came out at 0.298. For the variant ACCGGAUGUACUUUCCGGUCUGAUGAGUCCGUGAGGACGGAACAG [G10A A40G], the self-cleavage turned out to be 0.346. Then ACCGGAUGUACUUUCCGGCCUGAUGAGUCCGUGAGGACGAAACAG [G10A U19C], with 0.675; and ACCGGAUGUACUUUCCGGGCUGAUGAGUCCGUGAGGACGAAACAG [G10A U19G], with 0.464. Then ACCGGAUGUACUUUCCGGACUGAUGAGUCCGUGAGGACGAAACAG [G10A U19A], with 0.347. Turning to ACCGGAUGUACCUUCCGGUCUGAUGAGUCCGUGAGGACGAAACAG [G10A U12C], the self-cleavage worked out at 1.38. As to ACCGGAUGUACAUUCCGGUCUGAUGAGUCCGUGAGGACGAAACAG [G10A U12A], the self-cleavage is 0.985.

On to ACCGGAUGUACGUUCCGGUCUGAUGAGUCCGUGAGGACGAAACAG [G10A U12G], for which the self-cleavage turned out to be 1.51. For the variant ACCGGAUGGGCUUUCCGGUCUGAUGAGACCGUGAGGACGAAACAG [U9G U28A], the self-cleavage stood at 0.833. As for ACCGGAUGGGCUUUCCGGUCUGAUGAGCCCGUGAGGACGAAACAG [U9G U28C], the self-cleavage was 0.673. Next, ACCGGAUGGGCUUUCCGGUCUGAUGAGGCCGUGAGGACGAAACAG [U9G U28G]: 0.729; ACCGGAUGUACUUUCCGGUCUGUUGAGUCCGUGAGGACGAAACAG [G10A A23U]: 0.33. Next, ACCGGAUGUACUUUCCGGUCUGGUGAGUCCGUGAGGACGAAACAG [G10A A23G]: 0.34; ACCGGAUGUACUUUCCGGUCUGCUGAGUCCGUGAGGACGAAACAG [G10A A23C]: 0.375. On to ACCGGAUGUACUUUCCGGUCUGAUGAGUCCGUAAGGACGAAACAG [G10A G33A], for which the self-cleavage worked out at 1.21. Regarding ACCGGAUGUACUUUCCGGUCUGAUGAGUCCGUCAGGACGAAACAG [G10A G33C], the self-cleavage came out at 0.959.

Consider ACCGGAUGUACUUUCCGGUCUGAUGAGUCCGUUAGGACGAAACAG [G10A G33U], for which the self-cleavage was 1.01. For the variant ACCGGAUGUACUUUCCGGUCUGAUGAGUCCUUGAGGACGAAACAG [G10A G31U], the self-cleavage came to 0.938. Next, ACCGGAUGUACUUUCCGGUCUGAUGAGUCCCUGAGGACGAAACAG [G10A G31C]: 1.16; ACCGGAUGUACUUUCCGGUCUGAUGAGUCCAUGAGGACGAAACAG [G10A G31A]: 1.08. Then ACCGGAUGUACUUUCCGGUCUGAUGAGUCCGUGAAGACGAAACAG [G10A G35A], with 0.853; and ACCGGAUGUACUUUCCGGUCUGAUGAGUCCGUGAUGACGAAACAG [G10A G35U], with 0.925. For the variant ACCGGAUGUACUUUCCGGUCUGAUGAGUCCGUGACGACGAAACAG [G10A G35C], the self-cleavage amounted to 0.763. Consider ACCGGAUGUACUUUCCGGUCUGAUGGGUCCGUGAGGACGAAACAG [G10A A26G], for which the self-cleavage was found to be 0.353. Next, ACCGGAUGUACUUUCCGGUCUGAUGUGUCCGUGAGGACGAAACAG [G10A A26U]: 0.925.

On to ACCGGAUGUACUUUCCGGUCUGAUGCGUCCGUGAGGACGAAACAG [G10A A26C], for which the self-cleavage was found to be 0.666. Next, ACCGGAUGUAGUUUCCGGUCUGAUGAGUCCGUGAGGACGAAACAG [G10A C11G]: 1.35; ACCGGAUGUAUUUUCCGGUCUGAUGAGUCCGUGAGGACGAAACAG [G10A C11U]: 1.38.

As to ACCGGAUGUAAUUUCCGGUCUGAUGAGUCCGUGAGGACGAAACAG [G10A C11A], the self-cleavage is 1.09. Then ACCGGAUGUACUUUCCGGUCUGAUGAGUCCGUGAGGACGAAAUAG [G10A C43U], with 0.605. With ACCGGAUGUACUUUCCGGUCUGAUGAGUCCGUGAGGACGAAAAAG [G10A C43A], the self-cleavage worked out at 0.295. For the variant ACCGGAUGUACUUUCCGGUCUGAUGAGUCCGUGAGGACGAAAGAG [G10A C43G], the self-cleavage is 0.406. Then ACCGGAUGUACUUUCAGGUCUGAUGAGUCCGUGAGGACGAAACAG [G10A C16A], with 1.4; and ACCGGAUGUACUUUCGGGUCUGAUGAGUCCGUGAGGACGAAACAG [G10A C16G], with 0.812; and ACCGGAUGUACUUUCUGGUCUGAUGAGUCCGUGAGGACGAAACAG [G10A C16U], with 0.971.

On to ACCGGAUGUACUUGCCGGUCUGAUGAGUCCGUGAGGACGAAACAG [G10A U14G], for which the self-cleavage was 1.04. Then ACCGGAUGUACUUCCCGGUCUGAUGAGUCCGUGAGGACGAAACAG [G10A U14C], with 0.97. Next, ACCGGAUGUACUUACCGGUCUGAUGAGUCCGUGAGGACGAAACAG [G10A U14A]: 1.21.
